IntAct's records for PubMed 18614016

B1: Tyrosine-protein kinase CSK (Homo sapiens), P41240 (parent)
chain: MSAIQAAWPSGTECIAKYNFHGTAEQDLPFCKGDVLTIVAVTKDPNWYKAKNKVGREGIIPANYVQKREGVKAGTKLSLMPWFHGKITREQAERLLYPPETGLFLVRESTNYPGDYTLCVSCDGKVEHYRIMYHASKLSIDEEVYFENLMQLVEHYTSDADGLCTRLIKPKVMEGTVAAQDEFYRSGWALNMKELKLLQTIGKGEFGDVMLGDYRGNKVAVKCIKNDATAQAFLAEASVMTQLRHSNLVQLLGVIVEEKGGLYIVTEYMAKGSLVDYLRSRGRSVLGGDCLLKFSLDVCEAMEYLEGNNFVHRDLAARNVLVSEDNVAKVSDFGLTKEASSTQDTGKLPVKWTAPEALREKKFSTKSDVWSFGILLWEIYSFGRVPYPRIPLKDVVPRVEKGYKMDAPDGCPPAVYEVMKNCWHLDAAMRPSFLQLREQLEHIKTHELHL

Variants of: B1
Details: with src_chick SRC
With R283A the “effect of a mutation on the interaction” value was “decreasing interaction”. In the case of R279A, the “effect of a mutation on the interaction” value is reported as “decreasing interaction”. With R384A the “effect of a mutation on the interaction” value was “decreasing interaction”. With R281A the “effect of a mutation on the interaction” value was “decreasing interaction”. With R389A the “effect of a mutation on the interaction” value was “decreasing interaction”.
